Source: article PMC8103780

B1: T6 (ssDNA)
DNA: TTTTTT
B2: T10 (ssDNA)
DNA: TTTTTTTTTT
B3: (GT)2 (ssDNA)
DNA: GTGT

Target: SARS-CoV-2 nucleocapsid protein (N-protein) (SARS-CoV-2, UniProt P0DTC9 1-419)
Assay: SV-AUC

Row | Binder | Kd [nM]
1 | B1 | 290
2 | B2 | < 100
3 | B3 | > 10000
